From paper PMC9503621

Tests used:
[1] = biological target: large (50S) ribosomal subunit from Staphylococcus aureus (S. aureus) (UniProt Q2FW16)
[2] = biological target: large (50S) ribosomal subunit from Staphylococcus aureus (S. aureus) (UniProt Q2FW16); remark: listed apart in the source

UniProt Q2FW16, sequence (Q2FW16 whole entry, looked up): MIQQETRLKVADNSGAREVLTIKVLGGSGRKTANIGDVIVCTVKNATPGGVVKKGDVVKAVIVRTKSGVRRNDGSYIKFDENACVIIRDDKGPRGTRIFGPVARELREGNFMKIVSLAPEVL

Substance	efficiency of translation inhibition in the S. aureus cell-free system at 6 mM Mg2+ (370 mM K+) [1] [%]	Mg2+ concentration at which half of the vacant 70S ribosomes are dissociated into 50S + 30S (sucrose gradient profiles, 2X molar excess of RsfS, 3-5 mM Mg2+) [2] [mM Mg2+]	loss of anti-association activity at 4 mM Mg2+ (relative amount of dissociated 50S + 30S subunits, sucrose gradient profiles) (% of activity lost) [2]	anti-association activity at 4 mM Mg2+ (relative amount of dissociated 50S + 30S subunits, sucrose gradient profiles) [2] [% activity]
RsfS E70A mutant from Staphylococcus aureus (natural protein)	70	4.4	20	–
Ribosomal silencing factor S (RsfS) from Staphylococcus aureus, wild type (natural protein)	80	5	–	100
RsfS Y98A mutant from Staphylococcus aureus (natural protein)	35	3.4	80	–
